EP4467153A1, “CONSTRAINED PEPTIDE INHIBITORS OF LRRK2-FADD INTERACTIONS” (University of Georgia Research Foundation, Inc., priority 2023, dated 2024)
“Also recorded” adds a separate entry of the source. Positions of bridges follow the written chain, without caps; N, C: chain ends. Non-standard residues stand in square brackets, D forms with d. Primed or numbered codes have the meaning given here. FAM = 5(6)-carboxyfluorescein label; S5 = C=CCCC[C@](C)(N)C(=O)O; PEG3′ = PEG3 spacer

Key:
[1] = tested on: primary cortical neurons; experiment: Uptake of FAM-labeled peptide in primary cortical neurons (confocal imaging); assay type: cell-based, mouse; conditions: neurons expressing G2019S-LRRK2, 1 µM
[2] = biological target: T1, LRRK2-FADD PPI (Flag G2019S-LRRK2 and V5-FADD) (Homo sapiens, UniProt Q5S007, G2019S); experiment: Co-immunoprecipitation of LRRK2-FADD interaction in transfected HEK293T cells; assay type: cell-based
T1 construct: expressed in transfected cells; host or cells: HEK293T
T1 sequence (Q5S007 whole entry G2019S): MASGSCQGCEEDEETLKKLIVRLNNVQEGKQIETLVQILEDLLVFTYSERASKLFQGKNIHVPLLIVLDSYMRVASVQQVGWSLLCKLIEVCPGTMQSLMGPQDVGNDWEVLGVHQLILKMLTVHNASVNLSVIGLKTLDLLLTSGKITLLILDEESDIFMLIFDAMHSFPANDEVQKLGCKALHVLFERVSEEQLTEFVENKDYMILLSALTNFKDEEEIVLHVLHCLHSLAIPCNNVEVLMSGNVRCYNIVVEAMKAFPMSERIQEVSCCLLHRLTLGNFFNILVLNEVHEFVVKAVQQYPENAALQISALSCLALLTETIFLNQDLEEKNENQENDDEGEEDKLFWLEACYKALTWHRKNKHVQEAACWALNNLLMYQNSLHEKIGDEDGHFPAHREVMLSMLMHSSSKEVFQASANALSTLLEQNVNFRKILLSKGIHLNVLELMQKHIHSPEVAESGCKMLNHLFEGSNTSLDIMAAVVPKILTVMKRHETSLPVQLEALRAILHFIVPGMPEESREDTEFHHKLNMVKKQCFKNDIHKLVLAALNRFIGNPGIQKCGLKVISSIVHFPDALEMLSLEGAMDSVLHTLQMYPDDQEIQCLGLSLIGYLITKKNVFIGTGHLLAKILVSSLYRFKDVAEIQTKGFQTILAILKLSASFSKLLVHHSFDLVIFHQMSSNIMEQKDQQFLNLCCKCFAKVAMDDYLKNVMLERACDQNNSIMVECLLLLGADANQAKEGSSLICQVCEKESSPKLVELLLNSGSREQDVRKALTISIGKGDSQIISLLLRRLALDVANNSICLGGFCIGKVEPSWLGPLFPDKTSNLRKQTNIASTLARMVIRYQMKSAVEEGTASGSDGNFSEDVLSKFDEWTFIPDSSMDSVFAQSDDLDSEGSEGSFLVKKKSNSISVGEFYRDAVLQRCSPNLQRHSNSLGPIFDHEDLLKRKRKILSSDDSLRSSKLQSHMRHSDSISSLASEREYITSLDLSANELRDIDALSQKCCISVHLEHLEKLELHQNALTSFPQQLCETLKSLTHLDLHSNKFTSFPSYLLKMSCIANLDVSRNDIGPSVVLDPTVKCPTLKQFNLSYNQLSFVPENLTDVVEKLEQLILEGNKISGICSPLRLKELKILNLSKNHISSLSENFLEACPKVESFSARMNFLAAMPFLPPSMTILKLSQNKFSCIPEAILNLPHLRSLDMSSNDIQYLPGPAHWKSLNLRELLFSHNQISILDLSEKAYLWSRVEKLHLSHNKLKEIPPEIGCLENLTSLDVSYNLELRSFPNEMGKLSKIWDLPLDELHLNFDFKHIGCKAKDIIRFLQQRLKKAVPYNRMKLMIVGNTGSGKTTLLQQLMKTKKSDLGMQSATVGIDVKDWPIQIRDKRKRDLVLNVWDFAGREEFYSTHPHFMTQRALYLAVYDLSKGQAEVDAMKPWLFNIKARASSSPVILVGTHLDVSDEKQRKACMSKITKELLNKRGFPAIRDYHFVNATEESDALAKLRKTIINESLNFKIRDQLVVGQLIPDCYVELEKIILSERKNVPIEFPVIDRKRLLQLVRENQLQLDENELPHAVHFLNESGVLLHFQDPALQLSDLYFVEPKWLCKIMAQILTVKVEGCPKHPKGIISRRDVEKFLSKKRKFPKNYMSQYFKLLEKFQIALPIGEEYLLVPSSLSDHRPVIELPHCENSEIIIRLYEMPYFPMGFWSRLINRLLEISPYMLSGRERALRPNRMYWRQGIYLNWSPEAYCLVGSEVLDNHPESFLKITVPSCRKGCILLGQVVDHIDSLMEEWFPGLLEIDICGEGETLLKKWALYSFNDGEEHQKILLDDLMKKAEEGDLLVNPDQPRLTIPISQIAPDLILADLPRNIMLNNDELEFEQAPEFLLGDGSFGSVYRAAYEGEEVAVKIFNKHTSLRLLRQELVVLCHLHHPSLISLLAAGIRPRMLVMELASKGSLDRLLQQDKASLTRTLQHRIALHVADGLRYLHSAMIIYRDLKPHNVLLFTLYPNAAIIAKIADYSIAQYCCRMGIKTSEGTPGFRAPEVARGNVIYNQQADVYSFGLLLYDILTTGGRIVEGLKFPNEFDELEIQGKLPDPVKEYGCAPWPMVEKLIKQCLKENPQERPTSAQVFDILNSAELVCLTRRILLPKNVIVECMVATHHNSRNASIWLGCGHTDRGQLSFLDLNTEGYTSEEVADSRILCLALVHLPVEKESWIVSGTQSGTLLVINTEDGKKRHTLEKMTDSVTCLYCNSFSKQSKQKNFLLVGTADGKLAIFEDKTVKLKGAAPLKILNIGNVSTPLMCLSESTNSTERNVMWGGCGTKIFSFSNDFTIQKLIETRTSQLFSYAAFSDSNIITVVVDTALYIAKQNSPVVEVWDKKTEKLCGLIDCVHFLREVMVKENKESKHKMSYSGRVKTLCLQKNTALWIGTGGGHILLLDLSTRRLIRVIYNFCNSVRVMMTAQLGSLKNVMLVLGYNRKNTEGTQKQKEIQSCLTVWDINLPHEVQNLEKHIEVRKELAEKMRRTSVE
Protocol: It was then assessed whether this peptide library (FARM1-FARM5) could disrupt the interaction between over-expressed Flag G2019S-LRRK2 and V5-FADD by co-immunoprecipitation. Flag-LRRK2 was purified on anti-Flag resin and the eluate as well as the protein extract (input) separated by SDS-PAGE, with the membranes probed for V5 (FADD) and Flag (LRRK2). The transfected cells were treated with the indicated peptide (10 µM) for a total of 48 hr prior to collection. […] To minimize the use of primary mouse cortical neuron cultures, FARMS was used in subsequent experiments to examine the potential neuroprotective effects of LRRK2-FADD disruption.
Assessment of LRRK2-FADD interaction. Co-immunoprecipitation was undertaken to determine the effects of the stapled peptides on the LRRK2-FADD PPI, as previously described. Briefly, 10cm plates of HEK293T cells transiently expressing Flag-WT or mutant LRRK2 and V5-FADD (at a 3:1 ratio), and treated with different concentrations of FARM peptides (as indicated in the Figure legends), were washed in PBS and lysed in co-IP buffer (20mM HEPES, pH7.4; 150 mM NaCl; 0.1% NP40; 2 mM EGTA; 2 mM MgCl2; 10% glycerol, pH 7.2; protease and phosphatase cocktail [Agilent Technologies]) for 30 min on ice followed by 15 strokes with a Dounce glass homogenizer, and centrifugation at 13000 rpm for 15 min to remove cellular debris. Following pre-clearing with IgG-coupled beads, 40 µl of washed anti-Flag resin (Sigma-Aldrich) per mg of protein was added and the samples incubated under rotation overnight at 4°C. The following morning, the beads were centrifuged and washed a total of 5X with coIP buffer, before elution in 2X SDS sample buffer at 95°C for 10 min. The eluate (and input) was separated by SDS-PAGE and membranes probed with anti-Flag (LRRK2) and V5 (FADD).

[3] = tested on: primary cortical neurons expressing G2019S-LRRK2; experiment: Assessment of neuronal death (apoptotic nuclear features of transfected neurons); assay type: cell-based, mouse; conditions: 48hr treatment, vs vehicle
From the text: Disruption of the LRRK2-FADD PPI is neuroprotective. It has been previously shown that over-expression of mutant LRRK2 (G2019S or other pathogenic mutations) in primary cortical neurons results in apoptotic death of the neurons (see Iaccarino C, Crosio C, Vitale C, Sanna G, Carri MT, Barone P (2007) Apoptotic mechanisms in mutant LRRK2-mediated cell death. Hum Mol Genet 16, 1319-1326); and this example continues this area of identifying pathway(s) underlying cell-autonomous neuronal death in models of LRRK2-PD. […] Disruption of this interaction by dominant negative fragments of both FADD and LRRK2, or by deletion of the predicted FADD-binding domain within LRRK2, is neuroprotective against over-expression of mutant LRRK2. To determine whether FARMS could effectively disrupt the apoptotic death of primary neurons induced by pathogenic LRRK2, mouse embryonic cortical neurons were transiently transfected with G2019S-LRRK2 and increasing concentrations of the FARMS peptide were added. In cultures of neurons expressing G2019S-LRRK2, apoptotic Flag-positive neurons with characteristic fragmented and condensed nuclear apoptotic features, were observed as has been reported previously. […] A third neuron is visible within this field (with a condensed nucleus), however it is not expressing Flag-LRRK2, so would not be included in the assessment of neuronal death. the dose response of neuroprotection of FARMS was determined by counting the percentage of transfected neurons (stained with anti-Flag antibodies).
Assessment of Neuronal Death. […] Cells were centrifuged and counted and plated on poly-D-lysine coated glass coverslips at a density of 150,000/cm^2 in BrainPhys neuronal culture medium (StemCell Technologies) supplemented with SM1 Neuronal Supplement (StemCell Technologies), L-glutamine (0.5 mM) and […]. […] For quantification of apoptotic neuronal profiles, we used the approach described by Antoniou and colleagues. Briefly, individual Flag-positive neurons were assessed by a research blinded to the experimental conditions.

FARM5: FAM-labeled hydrocarbon-stapled FADD Armadillo domain peptide; mass fits SEQ ID NO. 6 KVADLVQEVQQAXDLQXRSK ({FAM-PEG3′}-KVADLVQEVQQA[S5]DLQ[S5]RSK-NH2; staple 13-17; also: FAM label, optionally 5(6)FAM-PEG3 on N-terminal lysine) [FAM-labeled hydrocarbon-stapled FADD Armadillo domain peptide; 6 …XDLQXRSK]
fluorescent signal from the FAM peptide tag in neurons [1]: diffusely distributed throughout most neurons
amount of FADD that co-purified with G2019S-LRRK2 (LRRK2-FADD interaction) ([2]; 10 µM, 48 hr, normalized to immunoprecipitated Flag-LRRK2, listed as FARMS): greatest, and most consistent, reduction; also recorded: reduced the interaction between LRRK2 and FADD
dose-dependency of the disruption of the LRRK2-FADD PPI ([2]; 0.1 to 10 µM, 24hr): progressive reduction in the LRRK2-FADD PPI with increasing doses
percentage of neurons with apoptotic profiles ([3]; 0.1 µM): unable to significantly block apoptotic neuronal death
percentage of neurons with apoptotic profiles ([3]; 1 µM, listed as FARMS): significantly reduced; also recorded: reduced evidence of chromatin condensation
percentage of neurons with apoptotic profiles ([3]; 10 µM, listed as FARMS): significantly reduced; also recorded: restored neuronal death to WT levels
